Biological target: Drosophila nitric oxide synthase (DNOS) (Drosophila) (UniProt Q27571)
Assay: cell-based or functional assay

Chain of Drosophila nitric oxide synthase (DNOS) (Drosophila) (Q27571 other isoform, or with tags, fused parts or gaps limits assumed): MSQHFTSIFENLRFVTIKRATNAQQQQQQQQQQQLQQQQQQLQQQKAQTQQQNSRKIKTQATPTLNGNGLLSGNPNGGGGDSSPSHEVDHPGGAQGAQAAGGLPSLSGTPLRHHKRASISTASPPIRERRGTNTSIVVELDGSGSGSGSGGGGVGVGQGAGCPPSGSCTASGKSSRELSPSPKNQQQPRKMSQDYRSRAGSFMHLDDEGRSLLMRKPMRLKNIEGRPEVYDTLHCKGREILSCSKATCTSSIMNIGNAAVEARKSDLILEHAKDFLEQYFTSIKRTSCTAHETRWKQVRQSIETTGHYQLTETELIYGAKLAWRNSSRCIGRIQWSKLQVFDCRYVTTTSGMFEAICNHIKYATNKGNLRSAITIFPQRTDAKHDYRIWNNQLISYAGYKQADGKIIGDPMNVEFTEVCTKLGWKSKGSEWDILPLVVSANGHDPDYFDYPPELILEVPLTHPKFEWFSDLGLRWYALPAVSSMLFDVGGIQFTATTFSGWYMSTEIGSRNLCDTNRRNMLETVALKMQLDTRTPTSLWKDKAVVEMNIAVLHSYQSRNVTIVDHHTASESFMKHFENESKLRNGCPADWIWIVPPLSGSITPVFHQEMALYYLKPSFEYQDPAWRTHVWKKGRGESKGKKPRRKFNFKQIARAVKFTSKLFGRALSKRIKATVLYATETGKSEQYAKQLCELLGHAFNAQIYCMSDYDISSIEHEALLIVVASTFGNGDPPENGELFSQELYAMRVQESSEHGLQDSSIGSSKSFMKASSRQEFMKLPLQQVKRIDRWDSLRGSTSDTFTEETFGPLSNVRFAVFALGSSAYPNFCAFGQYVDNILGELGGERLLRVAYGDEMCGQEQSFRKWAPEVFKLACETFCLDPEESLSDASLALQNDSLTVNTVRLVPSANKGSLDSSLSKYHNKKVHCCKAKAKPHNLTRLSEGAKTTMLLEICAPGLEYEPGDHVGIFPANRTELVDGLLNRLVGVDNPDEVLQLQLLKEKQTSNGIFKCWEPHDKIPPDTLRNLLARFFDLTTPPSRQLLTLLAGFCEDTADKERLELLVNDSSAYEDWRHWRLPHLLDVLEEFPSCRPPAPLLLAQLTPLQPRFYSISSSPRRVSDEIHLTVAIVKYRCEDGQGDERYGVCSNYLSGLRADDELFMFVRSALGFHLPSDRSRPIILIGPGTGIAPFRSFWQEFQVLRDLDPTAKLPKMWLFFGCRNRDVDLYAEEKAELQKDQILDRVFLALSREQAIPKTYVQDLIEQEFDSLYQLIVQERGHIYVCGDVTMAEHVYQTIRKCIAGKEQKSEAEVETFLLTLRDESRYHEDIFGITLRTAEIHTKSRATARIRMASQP

Substance: calmodulin
- NO synthase activity (L-arginine to L-citrulline conversion, 293 cell extracts, with exogenous Ca2+ and calmodulin): 0.128 pmol/mg/min
- NO synthase activity with 500 µM W5, a calmodulin antagonist: 0.0222 pmol/mg/min
- NO synthase activity with 500 µM W5, a calmodulin antagonist (% of activity): 18
- NO synthase activity with 1 mM EGTA, without exogenous Ca2+ or calmodulin: 90 % reduction

— patent publication US6890516
